Measurements reported in the nanobody polyreactivity screen of Harvey et al. (2022).

Assay: yeast display, Sf9 membrane polyspecificity reagent, FACS + sequencing; frameworks hold sequencing errors
Method in brief: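 In a synthetic yeast display library (Saccharomyces cerevisiae BJ5465), nanobody expression was induced with galactose for 36–48 hours. FACS gates were set low and high (top ~1%) using anti-HA fluorescence for expression and streptavidin fluorescence for binding of the Sf9 membrane reagent. Each polyreactivity label is drawn from the gate of origin.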

| Sequence | polyreactivity (PSR sort gate) |
| --- | --- |
| QVQLVESGGGLVQAGGSLRLSCAASGRIFSWYTMGWYRQAPGKERELVASITTGGRTYYADSLKGRFTNSRDNAKNTVYLQMNSLKPEDTAVYSCIVLSTLFGYYRWGDYWGQGTQVTVSS | high polyreactivity |
| QVQLQESVVGLVQAGGSLRLSCAASGNIIPTDRMGWYRQAPGKELEFVATISHGGSTNYADSVKGRFTISRDNAKNTVYLQMNSLKPEDTAVYYCAVWSLGSWRHYYWGQGTQVTVSS | low polyreactivity |
| QDQLVESGGGLVQAGGSLRLSCAASGSTFGYYAMGWYRKAPGKERELVAAITSGASTNYADSVKGRFTISRDNAKNTVYLQMNSLKPEDTAVSYCAAGFQTRTPLNEFDYWGQGTQVTVSS | low polyreactivity |
| QVQLVESGGGLVQAGGSLRLSCAASGFTFRYYAMGWYRQAPGKEREFVAAIRSSGTTTSYADSVKGRFTISRDNAKNTVYLHMHSLKPEDTAVYYCAAGYFGPQQYYYWGQGTQVTVSS | high polyreactivity |
| QVQLVESGGGLVQAGGSLRLSCAASGRTFRGYAMGWYRQAPGKERELVAAITSGGSTNYADSVKGRFTISRDHAKNSVYLQMNSLKPEDTAVDYCNRDTSKYGLWRYIYDYWGQGTQVTVSS | low polyreactivity |
| QVQLVESGGGLVQAGGSLRLSCAASGRIFRFNAMGWYRQAPGKERELVAAITGSGGTTFYADSVKGRFTISRDNAKNTVYLQMNSLKPEDTAVYYCNTLGNWRPVYNQPRYEYWGQGTQVTVSS | high polyreactivity |
| QVQLVESGGGLVQAGGSLRLSCAASGRTFGYNAMGWYRQAPGKERELVAAIRYSGGSTYYADSVKGRFTISRDNAKNTVYLQMNSLKPEDTAVYYCAAYCLFSSYGYDYWGQGTQVTVSS | high polyreactivity |
| QVQLVESGGGLVQAGGSLRLSCAASGLTFPYYVMGWYRQAPGKERELVAAISSSGGSTYYADSVKGRFTISRDNAKNTVYLQMNSLKPEDTAVYYCNAPYVFSAGFDYWGQGTQVTVSS | low polyreactivity |
| QFQHVESGAGLVHAGGCLRLSCSASGRTFFYNAMGWYRQPPGKEREFVASITWSGSTYYADSVKGRFTISRDNAKNTVYLLMNRLKQEDTAVYYCAADRQGGLVIDSGGYDYWGQGTQVTVSS | low polyreactivity |
| QVQLVESGGGLVQAGGSLRLSCAASGRTFYSYTMGWYRQAPGKERELVAAINRGGSTYYADSVKGRFTISRDNAKNTVYLQMNSLYPVDNAVYYCAVGYAHSSNRRYYYKQTHGYWGQGTQVTVSS | low polyreactivity |
| QVQLVESGGGLVQAGGSLRLSCAASGIIFRSYAMGWYRQAPGKERELVAGISLSGGSTYYADSVKGRFTISRDNAKNTVYLQMNSLKPEDTAVYYCATRNHYFRALRYGYWGQGTQVTVSS | high polyreactivity |
| QVQLVESGGGLVHAGGSLRLSCAASGSTFHTYDMGWYRKAPWKERELVAAITSRDSTHYADSVKGCFTISRDNAKNTVYLQMNSLKPEDTAVYYCAASAPYLYYRSAYYYWGQGTQVTVSS | low polyreactivity |
| QVQLVESGGGLVQAGGSLRLSCAASGITFYYYAMGWYRQAPGKERELVAAINSGGITNYADSVKGRFTISRDNAKNTVYLQMNSLKPEDTAVYYCAASSGFRYRYGYWGQGTQVTVSS | high polyreactivity |
| QVQLVESGGGLVQAGGSLRLSCAASGIIFSYYPMGRYRQAPGIERELVAAISRSGGNTYYADSVKGRFTISRDNAKNTVYVQMNSLKPEDTAVYYCAVGWYDDYYYGYDYWGQGTQVTVSS | high polyreactivity |
| QVQLVESGGGLVQAGGSLRLSCAASGITFDYYAMGWYRQAPRKERELVPGISWGGGSTYYADSVKGRFTISRDNAKNTVYLQMNSLKPEDTAVYYCAADIVSSPSSYVPPGDYWGQGTQVTVSS | low polyreactivity |
| QVQLVESGGGLVQAGGSLRLSCAASGSIFRRNAMGWYRQAPGTERELVAAISLRGGSTYYADSVKGRFTISRDLAKNTVYLQMISLKTQDTAVYYCADDEFDDYDWYRGYDTTYDYWGQGTQVTGSS | low polyreactivity |
| QVQLVESGGGLVQAGGSLRLSCAASGFTFGWYAMGWYRQAPGKERELVADITYNDASTYYADSVKGRFTISRDNAKNTVYLQMNSLKPEDTAVYYCNAVHRRYLVTHPYDYWGQGTQVTVSS | low polyreactivity |
| QVQHVESAGGLVQAGGSLRLSCAASGGIFWVYAMGWSRQAPGTERELVAAISNSDTSTSYADSVKGRFTISRDNAKNTVYLQMNSLKPEDTAVYYCNAVSPSLSGDYWGQGTQVTVSS | low polyreactivity |
| QVQLVESGGGLVQAGGSLRLSCAASGSTFGAYAMGWSRQAPGKERELVAAISKRGGSTYYADSVKGRFTISRDNAKNTVYLQMNSLKPEDTAVYYCATDHFSPTYGYWGQGTQVTVSS | low polyreactivity |
| QVQLVESGGGLVQAGGSLRLSCAASGRIFWYYAMGWYRQAPGKEREFVAAIDWSGGRTYYADSVKGRFTISRDNAKNTVYLQMNSLKPEDTAVYYCAARDRAGRGKSYKPYYYWGQGTQVTVSS | high polyreactivity |
| QVQLVESGGGLVQAGGILRLSCAASGSIVTDNAMGWYRQAPGKERELVAAITSSGNTNYADSVKGRFTISRDNAKNTVYLQINSLKPEDTAVYYCAADSYYKHWTDWLPVGEDYWGQGTQVTVSS | low polyreactivity |
| QVQLVESGGGLVQAGGSLRLSCAATGSTFLRNAIGWYRQAPGTERELVATITNGGSTYYADSVKGRFTISRDNAKNTVYLQMNSLKPEDTAVYYCATLSSYWSWLRYGYGYWGQGTQVTVSS | low polyreactivity |

| Sequence | polyreactivity (PSR sort gate) |
| --- | --- |
| QVQLQESGGGLVQAGGSLRLSCAASGTISPLPAMGWYRQAPGKERDFVAGIDTGAITNYADSVKGRFTISRDNAKHTVYLQMNSLKPEETAVYYCADFPAAYDYYERYYTYWGQGTQVTVSS | low polyreactivity |
| QVQLVESGGGLVQAGGSLRLSCAASGRIYVYAMGWYRQAPGKEREMVAAITASDGSTYYADSVKGRFTISRDNAKNTVYLQMNSLKPEDTAVYYCAADIYEHNYYGYYYWGQGTKVTVSS | high polyreactivity |
| KVQLVESGGGLVQAGGSLRLSCAASGSTFYYYAMGWNRQAPGKERELVAVITLSGGSTYYADSVKGRFTISRDNAKNTFYLQMNSLKPEDTAVFYCAAEHWEVWNSYYYEYDYWGQGTLVTVSS | high polyreactivity |
| QVQLVESGGGLVQAGGSLRLSCAASGSTFSRYAMGWYRQAPGKEREFGAAISRRAGGTYYADSVKGRFTISRDNAKNTVYLQMNSLKPEDTAVYYCAKVLPRDYIGRATYDYWGQGTQVTVSS | high polyreactivity |
| QVQLVESGGRLVQAGGSLRLSCAASGSIFFSNAMGWYRQAPGKERELVAAITSTGGSTYYADSVKGRFTISRDNAKNTVYLQMNSLKPEDTAVYYCAAASRRGYYYWGQGTQVTVSS | high polyreactivity |
| QVQLVESGGGLVQAGGSLRLSCAPSGSTINQYAMGWYRQAPGKESELVAAITRRGGSTYYADSVKGRFTISRDNAKNTVYLQMNSLKPEDTAVYYCAAAYPYTTVSYDYWGQGTQVTVSS | high polyreactivity |
| QVQLVESGGGLVQAGGSLRLSCAASGRIFTRYVMGWSRQAPGKERELVAAISYRGGRTYYADSVKGRFTISRDNAKNTVYLQMNSLKPEDTAVYYCAVDYTLADVIYDYWGQGTQVTVSS | high polyreactivity |
| QVQLVESGGGLVQAAGSLRLSCAASGRIFFAYAMGWNRQEPGKERELVASITSGGSTNYADSVKGRFTISRDNAKNTVYLQMNSLKPEDTAVYYCAARSRFSNLYVRFYYWGQGTQVTVSS | high polyreactivity |
| QVQLVESGGGLVQAGGSLRLSCAASGYTFAGNAMGWYRQAPGKERELVAVITYSGGSTYYADSVKGRFTISRDNAKNTVYSQMNSLKPEDTAVYYCNAVRDRYASDYWGQGTQVTVSS | low polyreactivity |
| QVQLVESGGGLVEAGGSLRLSCAASGLTFIVKAIGWYRQAPGKEREFVAAIRSGDGNTHYADSLKGRYTISRDNAKNTVYFQMNSLKPVDTAVYYCNAGFPRSYRFDYWGQGTQVTVSS | high polyreactivity |
| QVQLVESRWRFVQAGGSLRLSCAASGSIFADYAMGWYRQAPGKERELVAAITFSGGSTYYADSVKGRFTISRDNAKNTVYLQMNSLKPEDTAVYYCAARWRYRYYSWGQGTQVTVSS | high polyreactivity |
| QVQHVESGGGLVQAGGSLRLSCAASGSTIRRNAMGWYRQAPGKERELVAAISGTGGRTYYADSVKGRFTISRDNAKNTVYLQMNSLKPEDTAVYYCNAAGRFYWGQGTQVTVSS | high polyreactivity |
| QDQLVESGGGLVQAGGSLRLSCAASGSIFSGYAMGWYRQPPGKERELVAAISRRGTSTYYADSVKGRFTISRDNAKNTVYLQMNSLKPEDTAFYYCAATYGGRQSYGGFDYWGQGTQVTVSS | high polyreactivity |
| QVQLVESGGGLVQAGGSLRLSCAASGSTLVTNAMGWYRQAPGKERELVAAITFSGGTTYYADSVKGRFTISRDNAKNTFYLQMNSLKPEDTAVYYCAAEIWLEYVGYDYWGQGTQVTVSS | high polyreactivity |
| QVQLVESGGGLVQAGGSLRLSCAASGRTLRGNAMGWYRQAPGKERELVAVITRRGGSTYYADSVKGRFTISRDNAKNTFYLQMNSLKPEDTAVYYCAAVPYYYKYDYWGQGTQVTVSS | high polyreactivity |
| QVQLVESGGGLVQAGGSLRLSCAASGRIFDSYAMGWYRQAPGKERELVASITCSGGSTYADSVKGRFTSSRDNAKNTVYLQMNSLKPEDTAVYYFDYWGQGTQVTVSS | low polyreactivity |
| QVQLVESGGGLVQAGGSLRLSCAASGRIFQDYAMGWYRQATGKERELVAAITWSGGRTYYADSVKGRFTISRDNAKNTVYLQMNSLKPEDTAVYYCNRLTQSRLYYGPREYYYWGQGTQVTVSS | high polyreactivity |
| QVQLVESGGGLVQAGGSLRLSCAASGSISVYNAMGWYRQAPGKVRELVAAISWSGGRTSYADSVKGRFTISRDHAKNTVYLQMNSLKPEDTAVYYCAADELTGLWDEDYWGPGTQVTVSS | low polyreactivity |
| QVQLVESGGGLVQAGGSLRVSCAASGIIFDGNAMGWYRQAPGKERELVAAITASGGSTHYADSVKGRFTISRDNAKNTVYLQMNSLKPEDTAVYYCNKRSRTTGDYDYWGQGTHVTVSS | low polyreactivity |
| QVQLVESGGGLVQAGGSLRLSSAASGYIFDLNAMGRYRQAPGKERELVAAISTGGGTYYADSVKGRFTISRDNAKNTVYLQMNSLKPEDTAVYYCAADWGYWYAEYDYWGQGTLVTVSS | low polyreactivity |
| QVQLVESGGGLVQAGGSLRLSCAASGSTFGYYAMGWYRQAPGKERELVASITWGGGSTYYADSVKGRFTISRDNAKNTVYLQMNSLKPEDTAVYYCAATILGGTWGYGSYTYYYWGHGTQVTVSS | low polyreactivity |
